Results as given in patent US20140087995A1 (published 2014).
Numbered stars: 1 amine (or outer) side, 2 acyl side, 3 side chain; on linkers, the order of the positions; unused ones are H or OH. Bridge positions count the residues as written; N and C are the ends. Side chains are listed from the residue outwards. Ends that are not written are not given here. * marks the point of attachment. C20 diacid = O=C(O)CCCCCCCCCCCCCCCCCCC(=O)*; γGlu = O=C(O)[C@H](CCC(=O)[*:2])N[*:1]; AEEA = NCCOCCOCC(=O)O

T1: human calcitonin receptor (human, UniProt P30988 25-474)
T1 construct: whole, on cells; also called hCTR; hCT
T1 sequence (looked up): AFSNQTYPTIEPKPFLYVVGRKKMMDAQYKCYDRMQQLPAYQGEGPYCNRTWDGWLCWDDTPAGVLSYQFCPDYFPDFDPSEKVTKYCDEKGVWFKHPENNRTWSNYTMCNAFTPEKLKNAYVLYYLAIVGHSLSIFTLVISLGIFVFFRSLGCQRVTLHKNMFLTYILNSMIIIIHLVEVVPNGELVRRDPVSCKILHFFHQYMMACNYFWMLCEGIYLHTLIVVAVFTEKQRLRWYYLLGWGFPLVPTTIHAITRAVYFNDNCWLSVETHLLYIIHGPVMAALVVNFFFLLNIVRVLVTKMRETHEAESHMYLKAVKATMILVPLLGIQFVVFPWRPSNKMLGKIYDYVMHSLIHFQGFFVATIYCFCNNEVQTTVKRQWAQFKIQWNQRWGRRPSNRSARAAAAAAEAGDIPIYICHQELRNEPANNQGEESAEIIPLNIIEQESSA

B1: N^ε1-[2-[2-[2-(19-carboxynonadecanoylamino)ethoxy]ethoxy]acetyl]-[Arg17,Pro21,Pro27]-h-amylin (peptide)
peptide: K([AEEA-C20 diacid])CNTATCATQRLANFLRHSSPNFGAIPSSTNVGSNTY-NH2
modifications: disulfide 2-7; N-terminus assumed
SMILES: CC[C@H](C)[C@H](NC(=O)[C@H](C)NC(=O)CNC(=O)[C@H](Cc1ccccc1)NC(=O)[C@H](CC(N)=O)NC(=O)[C@@H]1CCCN1C(=O)[C@H](CO)NC(=O)[C@H](CO)NC(=O)[C@H](Cc1c[nH]cn1)NC(=O)[C@H](CCCNC(=N)N)NC(=O)[C@H](CC(C)C)NC(=O)[C@H](Cc1ccccc1)NC(=O)[C@H](CC(N)=O)NC(=O)[C@H](C)NC(=O)[C@H](CC(C)C)NC(=O)[C@H](CCCNC(=N)N)NC(=O)[C@H](CCC(N)=O)NC(=O)[C@@H](NC(=O)[C@H](C)NC(=O)[C@@H]1CSSC[C@H](NC(=O)[C@@H](N)CCCCNC(=O)COCCOCCNC(=O)CCCCCCCCCCCCCCCCCCC(=O)O)C(=O)N[C@@H](CC(N)=O)C(=O)N[C@@H]([C@@H](C)O)C(=O)N[C@@H](C)C(=O)N[C@@H]([C@@H](C)O)C(=O)N1)[C@@H](C)O)C(=O)N1CCC[C@H]1C(=O)N[C@@H](CO)C(=O)N[C@@H](CO)C(=O)N[C@H](C(=O)N[C@@H](CC(N)=O)C(=O)N[C@H](C(=O)NCC(=O)N[C@@H](CO)C(=O)N[C@@H](CC(N)=O)C(=O)N[C@H](C(=O)N[C@@H](Cc1ccc(O)cc1)C(N)=O)[C@@H](C)O)C(C)C)[C@@H](C)O
notes: also called compound 43
B2: N^ε1-[2-[2-[2-[[(4S)-4-carboxy-4-(19-carboxynonadecanoylamino)butanoyl]amino]ethoxy]ethoxy]acetyl]-[Arg17,Pro21,Pro27]-h-amylin (peptide)
peptide: K([AEEA-γGlu-C20 diacid])CNTATCATQRLANFLRHSSPNFGAIPSSTNVGSNTY-NH2
modifications: disulfide 2-7; N-terminus assumed
SMILES: CC[C@H](C)[C@H](NC(=O)[C@H](C)NC(=O)CNC(=O)[C@H](Cc1ccccc1)NC(=O)[C@H](CC(N)=O)NC(=O)[C@@H]1CCCN1C(=O)[C@H](CO)NC(=O)[C@H](CO)NC(=O)[C@H](Cc1c[nH]cn1)NC(=O)[C@H](CCCNC(=N)N)NC(=O)[C@H](CC(C)C)NC(=O)[C@H](Cc1ccccc1)NC(=O)[C@H](CC(N)=O)NC(=O)[C@H](C)NC(=O)[C@H](CC(C)C)NC(=O)[C@H](CCCNC(=N)N)NC(=O)[C@H](CCC(N)=O)NC(=O)[C@@H](NC(=O)[C@H](C)NC(=O)[C@@H]1CSSC[C@H](NC(=O)[C@@H](N)CCCCNC(=O)COCCOCCNC(=O)CC[C@H](NC(=O)CCCCCCCCCCCCCCCCCCC(=O)O)C(=O)O)C(=O)N[C@@H](CC(N)=O)C(=O)N[C@@H]([C@@H](C)O)C(=O)N[C@@H](C)C(=O)N[C@@H]([C@@H](C)O)C(=O)N1)[C@@H](C)O)C(=O)N1CCC[C@H]1C(=O)N[C@@H](CO)C(=O)N[C@@H](CO)C(=O)N[C@H](C(=O)N[C@@H](CC(N)=O)C(=O)N[C@H](C(=O)NCC(=O)N[C@@H](CO)C(=O)N[C@@H](CC(N)=O)C(=O)N[C@H](C(=O)N[C@@H](Cc1ccc(O)cc1)C(N)=O)[C@@H](C)O)C(C)C)[C@@H](C)O
notes: also called compound 41
B3: N^-1-[(4S)-4-carboxy-4-(19-carboxynonadecanoylamino)butanoyl]-Gly[Arg1,Arg17,Pro21,Pro27,His35]-h-amylin (peptide)
peptide: {C20 diacid-γGlu}-GRCNTATCATQRLANFLRHSSPNFGAIPSSTNVGSHTY-NH2
modifications: disulfide 3-8
SMILES: CC[C@H](C)[C@H](NC(=O)[C@H](C)NC(=O)CNC(=O)[C@H](Cc1ccccc1)NC(=O)[C@H](CC(N)=O)NC(=O)[C@@H]1CCCN1C(=O)[C@H](CO)NC(=O)[C@H](CO)NC(=O)[C@H](Cc1c[nH]cn1)NC(=O)[C@H](CCCNC(=N)N)NC(=O)[C@H](CC(C)C)NC(=O)[C@H](Cc1ccccc1)NC(=O)[C@H](CC(N)=O)NC(=O)[C@H](C)NC(=O)[C@H](CC(C)C)NC(=O)[C@H](CCCNC(=N)N)NC(=O)[C@H](CCC(N)=O)NC(=O)[C@@H](NC(=O)[C@H](C)NC(=O)[C@@H]1CSSC[C@H](NC(=O)[C@H](CCCNC(=N)N)NC(=O)CNC(=O)CC[C@H](NC(=O)CCCCCCCCCCCCCCCCCCC(=O)O)C(=O)O)C(=O)N[C@@H](CC(N)=O)C(=O)N[C@@H]([C@@H](C)O)C(=O)N[C@@H](C)C(=O)N[C@@H]([C@@H](C)O)C(=O)N1)[C@@H](C)O)C(=O)N1CCC[C@H]1C(=O)N[C@@H](CO)C(=O)N[C@@H](CO)C(=O)N[C@H](C(=O)N[C@@H](CC(N)=O)C(=O)N[C@H](C(=O)NCC(=O)N[C@@H](CO)C(=O)N[C@@H](Cc1c[nH]cn1)C(=O)N[C@H](C(=O)N[C@@H](Cc1ccc(O)cc1)C(N)=O)[C@@H](C)O)C(C)C)[C@@H](C)O
notes: also called compound 47
B4: N^-1-[(4S)-4-carboxy-4-(19-carboxynonadecanoylamino)butanoyl]-Gly[Arg1,Arg17,Pro21,Pro27]-h-amylin (peptide)
peptide: {C20 diacid-γGlu}-GRCNTATCATQRLANFLRHSSPNFGAIPSSTNVGSNTY-NH2
modifications: disulfide 3-8
SMILES: CC[C@H](C)[C@H](NC(=O)[C@H](C)NC(=O)CNC(=O)[C@H](Cc1ccccc1)NC(=O)[C@H](CC(N)=O)NC(=O)[C@@H]1CCCN1C(=O)[C@H](CO)NC(=O)[C@H](CO)NC(=O)[C@H](Cc1c[nH]cn1)NC(=O)[C@H](CCCNC(=N)N)NC(=O)[C@H](CC(C)C)NC(=O)[C@H](Cc1ccccc1)NC(=O)[C@H](CC(N)=O)NC(=O)[C@H](C)NC(=O)[C@H](CC(C)C)NC(=O)[C@H](CCCNC(=N)N)NC(=O)[C@H](CCC(N)=O)NC(=O)[C@@H](NC(=O)[C@H](C)NC(=O)[C@@H]1CSSC[C@H](NC(=O)[C@H](CCCNC(=N)N)NC(=O)CNC(=O)CC[C@H](NC(=O)CCCCCCCCCCCCCCCCCCC(=O)O)C(=O)O)C(=O)N[C@@H](CC(N)=O)C(=O)N[C@@H]([C@@H](C)O)C(=O)N[C@@H](C)C(=O)N[C@@H]([C@@H](C)O)C(=O)N1)[C@@H](C)O)C(=O)N1CCC[C@H]1C(=O)N[C@@H](CO)C(=O)N[C@@H](CO)C(=O)N[C@H](C(=O)N[C@@H](CC(N)=O)C(=O)N[C@H](C(=O)NCC(=O)N[C@@H](CO)C(=O)N[C@@H](CC(N)=O)C(=O)N[C@H](C(=O)N[C@@H](Cc1ccc(O)cc1)C(N)=O)[C@@H](C)O)C(C)C)[C@@H](C)O
notes: also called compound 46
B5: N^ε-[2-[2-[2-[[(4S)-4-carboxy-4-(19-carboxynonadecanoylamino)butanoyl]amino]ethoxy]ethoxy]acetyl]Lys[Arg1,Arg17,Pro21,Pro27,His35]-h-amylin (peptide)
peptide: K([AEEA-γGlu-C20 diacid])RCNTATCATQRLANFLRHSSPNFGAIPSSTNVGSHTY-NH2
modifications: disulfide 3-8; N-terminus assumed
SMILES: CC[C@H](C)[C@H](NC(=O)[C@H](C)NC(=O)CNC(=O)[C@H](Cc1ccccc1)NC(=O)[C@H](CC(N)=O)NC(=O)[C@@H]1CCCN1C(=O)[C@H](CO)NC(=O)[C@H](CO)NC(=O)[C@H](Cc1c[nH]cn1)NC(=O)[C@H](CCCNC(=N)N)NC(=O)[C@H](CC(C)C)NC(=O)[C@H](Cc1ccccc1)NC(=O)[C@H](CC(N)=O)NC(=O)[C@H](C)NC(=O)[C@H](CC(C)C)NC(=O)[C@H](CCCNC(=N)N)NC(=O)[C@H](CCC(N)=O)NC(=O)[C@@H](NC(=O)[C@H](C)NC(=O)[C@@H]1CSSC[C@H](NC(=O)[C@H](CCCNC(=N)N)NC(=O)[C@@H](N)CCCCNC(=O)COCCOCCNC(=O)CC[C@H](NC(=O)CCCCCCCCCCCCCCCCCCC(=O)O)C(=O)O)C(=O)N[C@@H](CC(N)=O)C(=O)N[C@@H]([C@@H](C)O)C(=O)N[C@@H](C)C(=O)N[C@@H]([C@@H](C)O)C(=O)N1)[C@@H](C)O)C(=O)N1CCC[C@H]1C(=O)N[C@@H](CO)C(=O)N[C@@H](CO)C(=O)N[C@H](C(=O)N[C@@H](CC(N)=O)C(=O)N[C@H](C(=O)NCC(=O)N[C@@H](CO)C(=O)N[C@@H](Cc1c[nH]cn1)C(=O)N[C@H](C(=O)N[C@@H](Cc1ccc(O)cc1)C(N)=O)[C@@H](C)O)C(C)C)[C@@H](C)O
notes: also called compound 45
B6: N^ε1-[(4S)-4-carboxy-4-(19-carboxynonadecanoylamino)butanoyl]-[Arg17,Pro21,Pro27]-h-amylin (peptide)
peptide: K([γGlu-C20 diacid])CNTATCATQRLANFLRHSSPNFGAIPSSTNVGSNTY-NH2
modifications: disulfide 2-7; N-terminus assumed
SMILES: CC[C@H](C)[C@H](NC(=O)[C@H](C)NC(=O)CNC(=O)[C@H](Cc1ccccc1)NC(=O)[C@H](CC(N)=O)NC(=O)[C@@H]1CCCN1C(=O)[C@H](CO)NC(=O)[C@H](CO)NC(=O)[C@H](Cc1c[nH]cn1)NC(=O)[C@H](CCCNC(=N)N)NC(=O)[C@H](CC(C)C)NC(=O)[C@H](Cc1ccccc1)NC(=O)[C@H](CC(N)=O)NC(=O)[C@H](C)NC(=O)[C@H](CC(C)C)NC(=O)[C@H](CCCNC(=N)N)NC(=O)[C@H](CCC(N)=O)NC(=O)[C@@H](NC(=O)[C@H](C)NC(=O)[C@@H]1CSSC[C@H](NC(=O)[C@@H](N)CCCCNC(=O)CC[C@H](NC(=O)CCCCCCCCCCCCCCCCCCC(=O)O)C(=O)O)C(=O)N[C@@H](CC(N)=O)C(=O)N[C@@H]([C@@H](C)O)C(=O)N[C@@H](C)C(=O)N[C@@H]([C@@H](C)O)C(=O)N1)[C@@H](C)O)C(=O)N1CCC[C@H]1C(=O)N[C@@H](CO)C(=O)N[C@@H](CO)C(=O)N[C@H](C(=O)N[C@@H](CC(N)=O)C(=O)N[C@H](C(=O)NCC(=O)N[C@@H](CO)C(=O)N[C@@H](CC(N)=O)C(=O)N[C@H](C(=O)N[C@@H](Cc1ccc(O)cc1)C(N)=O)[C@@H](C)O)C(C)C)[C@@H](C)O
notes: also called compound 48

Biological target: T1, human calcitonin receptor
Assay: SPA competition with 125I-calcitonin, membranes of BHK hCTR cells (Assay VII)
Outline: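 BHK hCTR membranes 35 ng/μL + SPA beads 0.05 mg/well; buffer 50 mM Hepes pH 7.4, 1 mM CaCl2, 5 mM MgCl₂, 0.1% OA, 0.02% Tween20. 120 min, 25° C., shaking. Scintillation count; IC50 by one-site binding competition.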

Row | IC50 | Binder
1 | 2.64 nM | B1
2 | 21.3 nM | B2
3 | 15.5 nM | B3
4 | 9.53 nM | B4
5 | 14.8 nM | B5
6 | 30.9 nM | B6
